Source: patent publication US11634486B2, “Anti-SEZ6L2 antibodies and antibody drug conjugates” (Bluefin BioMedicine, Inc., priority 2016, dated 2023)

How the values were obtained:
Human SEZ6L2 = target: T1, Human SEZ6L2 (Homo sapiens, UniProt Q6UXD5); test: ForteBio Octet binding kinetics, Protein A biosensors
T1 construct: a protein composed of the extracellular portion of the human SEZ6L2 protein; His6 (C); made in house; host or cells: CHO (ExpiCHO)
Protocol: (§1) Affinity: The affinity of antibodies to various recombinant SEZ6L2 molecules was determined on an Octet Red (Pall, ForteBio) instrument. After loading reagents into a 96-well plate, the Octet Red with Protein A-conjugated biosensors was programmed as follows: 30 seconds for baseline #1; 120 seconds to immobilize the antibody; 30 seconds for baseline #2; 300 seconds for association of antibody to recombinant SEZ6L2; and 300-600 seconds for dissociation of recombinant SEZ6L2 from the antibody.
(§2) Table 10, below, indicates the KD, Kon, and Koff values for human antibodies 1A1, 3A1, 3A2, and 3A3 and humanized antibodies 16H8, 3E2, 20C4, and 2E4, for both human SEZ6L2 and cynomolgus monkey SEZL2, as determined by ForteBio Data Analysis 9.0 Kinetics software. Briefly, within the ForteBio Octet red96 instrument, Protein A biosensors were incubated with fixed amounts of the test antibody. The biosensors with bound antibody were then rinsed and dipped into wells containing varying concentrations of the recombinant target protein. Approximately 5 different concentrations were independently tested. After a period of time, the biosensors were dipped into buffer to allow the target protein to dissociate from the antibody. The ForteBio software package generated a best-fit curve for each of the profiles of the varying concentrations of target protein. The calculated affinity measurements were analyzed, and the rate constant values from the middle of the linear range were chosen.

SEZ6 (293-SEZ6) = target: T2, SEZ6 (293-SEZ6) (Homo sapiens, UniProt Q53EL9); test: Flow cytometry specificity on overexpressing 293 cells; type: binding; conditions: primary antibody 1 ug/ml, live cells on ice
T2 construct: expressed in transfected cells; host or cells: HEK 293
T2 sequence (Q53EL9 20-994): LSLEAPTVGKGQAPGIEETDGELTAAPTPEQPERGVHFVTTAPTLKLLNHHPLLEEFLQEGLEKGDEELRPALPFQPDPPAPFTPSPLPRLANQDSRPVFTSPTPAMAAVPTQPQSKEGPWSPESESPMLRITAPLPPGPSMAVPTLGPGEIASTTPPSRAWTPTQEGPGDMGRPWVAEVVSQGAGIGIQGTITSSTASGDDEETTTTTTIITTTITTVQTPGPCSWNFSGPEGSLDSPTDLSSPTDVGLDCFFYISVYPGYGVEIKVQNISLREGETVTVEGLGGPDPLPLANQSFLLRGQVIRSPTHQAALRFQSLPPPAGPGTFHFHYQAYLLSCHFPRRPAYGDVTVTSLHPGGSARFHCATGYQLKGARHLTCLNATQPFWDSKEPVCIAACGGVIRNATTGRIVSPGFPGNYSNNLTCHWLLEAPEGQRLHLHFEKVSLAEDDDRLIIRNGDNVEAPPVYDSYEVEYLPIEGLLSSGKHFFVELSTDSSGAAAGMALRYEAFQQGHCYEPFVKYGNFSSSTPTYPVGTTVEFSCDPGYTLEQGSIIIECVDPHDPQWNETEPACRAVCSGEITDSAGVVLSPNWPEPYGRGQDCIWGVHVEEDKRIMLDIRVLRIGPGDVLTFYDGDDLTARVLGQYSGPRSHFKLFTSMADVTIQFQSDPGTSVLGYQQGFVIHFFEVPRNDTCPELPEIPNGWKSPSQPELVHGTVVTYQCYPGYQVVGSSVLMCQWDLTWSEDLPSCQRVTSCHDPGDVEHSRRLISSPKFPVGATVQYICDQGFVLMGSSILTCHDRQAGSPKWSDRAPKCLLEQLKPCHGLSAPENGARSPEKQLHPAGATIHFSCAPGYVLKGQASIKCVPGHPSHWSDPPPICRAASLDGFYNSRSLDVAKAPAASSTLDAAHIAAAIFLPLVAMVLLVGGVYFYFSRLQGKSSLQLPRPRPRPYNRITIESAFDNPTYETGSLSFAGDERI
Protocol: (§3) In order to assess whether SEZ6L2 antibody modulators immunospecifically associate with human SEZ6L2, and to determine whether the same modulators cross-react with SEZ6 and SEZ6L, flow cytometry was performed using a MACSquant™ as per the manufacturer's instructions. More particularly, modulators were tested for cross reactivity to cell lines that overexpress the human homologs of SEZ6 (293-SEZ6), SEZ6L (293-SEZ6L), and SEZ6L2 (293-SEZ6L2).
(§4) Briefly, staining for flow cytometry was performed in lx cold PBS with 0.5% BSA. Primary antibodies (1 ug/ml) were incubated with live cells on ice for one hour. After washing in the same buffer, cells were incubated with Alexa Fluro® 488-conjugated anti-human IgG secondary antibody @1:1000 (709-546-149, Jackson ImmunoResearch) on ice in the dark. After a 30 minute incubation, cells were washed in the same buffer and re-suspended in buffer plus propidium iodide (PI) to identify live cells. As a negative control, cells were incubated with secondary antibody alone. Acquisition of the data was performed on a MACSQuant® Flow Cytometer (Miltenyi Biotec) and analyzed with FlowJo software.

SEZ6L (293-SEZ6L) = target: T3, SEZ6L (293-SEZ6L) (Homo sapiens, UniProt Q9BYH1); test: as above; type: binding; conditions: primary antibody 1 ug/ml, live cells on ice
T3 construct: expressed in transfected cells; host or cells: HEK 293
T3 sequence (Q9BYH1 29-1024): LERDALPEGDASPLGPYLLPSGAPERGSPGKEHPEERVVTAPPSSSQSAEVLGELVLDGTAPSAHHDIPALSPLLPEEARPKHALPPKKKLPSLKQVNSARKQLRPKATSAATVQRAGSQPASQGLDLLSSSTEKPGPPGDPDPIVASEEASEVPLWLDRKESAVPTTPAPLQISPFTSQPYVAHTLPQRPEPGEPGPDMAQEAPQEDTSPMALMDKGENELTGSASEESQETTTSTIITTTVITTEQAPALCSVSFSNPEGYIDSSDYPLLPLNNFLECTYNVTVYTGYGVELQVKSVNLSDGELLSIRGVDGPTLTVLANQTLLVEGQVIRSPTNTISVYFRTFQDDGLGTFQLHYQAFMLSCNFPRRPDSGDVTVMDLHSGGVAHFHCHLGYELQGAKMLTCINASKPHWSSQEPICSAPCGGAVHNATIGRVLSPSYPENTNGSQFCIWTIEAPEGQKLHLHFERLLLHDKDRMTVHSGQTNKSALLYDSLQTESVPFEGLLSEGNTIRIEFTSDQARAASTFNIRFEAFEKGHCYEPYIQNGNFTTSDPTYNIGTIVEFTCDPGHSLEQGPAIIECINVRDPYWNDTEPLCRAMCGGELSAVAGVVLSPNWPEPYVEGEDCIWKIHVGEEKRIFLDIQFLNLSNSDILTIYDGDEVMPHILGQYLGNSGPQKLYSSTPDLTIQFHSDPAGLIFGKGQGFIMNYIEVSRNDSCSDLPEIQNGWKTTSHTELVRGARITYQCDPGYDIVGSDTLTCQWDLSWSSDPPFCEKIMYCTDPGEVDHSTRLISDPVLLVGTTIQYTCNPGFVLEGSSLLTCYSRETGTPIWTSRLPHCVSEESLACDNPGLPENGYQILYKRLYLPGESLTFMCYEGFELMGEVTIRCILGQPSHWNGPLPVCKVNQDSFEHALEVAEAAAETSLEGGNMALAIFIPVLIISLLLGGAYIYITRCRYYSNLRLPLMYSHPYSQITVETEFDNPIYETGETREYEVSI
Protocol: as §3, §4

SEZ6L2 (293-SEZ6L2) = target: T4, SEZ6L2 (293-SEZ6L2) (Homo sapiens, UniProt Q6UXD5); test: as above; type: binding; conditions: primary antibody 1 ug/ml, live cells on ice
T4 construct: cDNA encoding the complete mature human SEZ6L2 protein containing a C-terminal FLAG tag was purchased from Origene; FLAG (C); host or cells: HEK 293
Protocol: as §3, §4

Cynomolgus monkey SEZ6L2 = test: ForteBio Octet binding kinetics, Protein A biosensors
Protocol: as §1, §2

T1 sequence (Q6UXD5 28-844 limits assumed): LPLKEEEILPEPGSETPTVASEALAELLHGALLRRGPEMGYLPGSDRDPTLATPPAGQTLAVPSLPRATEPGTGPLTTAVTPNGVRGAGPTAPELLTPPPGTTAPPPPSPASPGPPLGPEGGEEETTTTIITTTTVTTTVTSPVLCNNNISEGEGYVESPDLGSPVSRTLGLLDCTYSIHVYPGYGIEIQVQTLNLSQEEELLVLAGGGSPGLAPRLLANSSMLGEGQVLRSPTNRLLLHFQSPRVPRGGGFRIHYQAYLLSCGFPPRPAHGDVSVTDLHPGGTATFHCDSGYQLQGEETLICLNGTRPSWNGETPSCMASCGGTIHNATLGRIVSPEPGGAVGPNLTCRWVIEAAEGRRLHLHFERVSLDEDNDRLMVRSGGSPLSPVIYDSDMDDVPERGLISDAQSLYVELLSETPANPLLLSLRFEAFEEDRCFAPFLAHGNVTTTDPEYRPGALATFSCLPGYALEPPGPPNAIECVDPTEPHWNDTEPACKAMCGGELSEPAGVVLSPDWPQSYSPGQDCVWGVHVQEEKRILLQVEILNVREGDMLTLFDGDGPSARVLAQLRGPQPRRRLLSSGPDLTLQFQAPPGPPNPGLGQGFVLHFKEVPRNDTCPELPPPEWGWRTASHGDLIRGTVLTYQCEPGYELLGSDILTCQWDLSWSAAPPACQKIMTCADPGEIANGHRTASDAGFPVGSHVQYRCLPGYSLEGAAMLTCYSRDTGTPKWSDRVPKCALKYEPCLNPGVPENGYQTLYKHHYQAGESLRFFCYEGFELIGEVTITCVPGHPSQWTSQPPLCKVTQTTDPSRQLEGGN
T4 sequence (Q6UXD5 28-910): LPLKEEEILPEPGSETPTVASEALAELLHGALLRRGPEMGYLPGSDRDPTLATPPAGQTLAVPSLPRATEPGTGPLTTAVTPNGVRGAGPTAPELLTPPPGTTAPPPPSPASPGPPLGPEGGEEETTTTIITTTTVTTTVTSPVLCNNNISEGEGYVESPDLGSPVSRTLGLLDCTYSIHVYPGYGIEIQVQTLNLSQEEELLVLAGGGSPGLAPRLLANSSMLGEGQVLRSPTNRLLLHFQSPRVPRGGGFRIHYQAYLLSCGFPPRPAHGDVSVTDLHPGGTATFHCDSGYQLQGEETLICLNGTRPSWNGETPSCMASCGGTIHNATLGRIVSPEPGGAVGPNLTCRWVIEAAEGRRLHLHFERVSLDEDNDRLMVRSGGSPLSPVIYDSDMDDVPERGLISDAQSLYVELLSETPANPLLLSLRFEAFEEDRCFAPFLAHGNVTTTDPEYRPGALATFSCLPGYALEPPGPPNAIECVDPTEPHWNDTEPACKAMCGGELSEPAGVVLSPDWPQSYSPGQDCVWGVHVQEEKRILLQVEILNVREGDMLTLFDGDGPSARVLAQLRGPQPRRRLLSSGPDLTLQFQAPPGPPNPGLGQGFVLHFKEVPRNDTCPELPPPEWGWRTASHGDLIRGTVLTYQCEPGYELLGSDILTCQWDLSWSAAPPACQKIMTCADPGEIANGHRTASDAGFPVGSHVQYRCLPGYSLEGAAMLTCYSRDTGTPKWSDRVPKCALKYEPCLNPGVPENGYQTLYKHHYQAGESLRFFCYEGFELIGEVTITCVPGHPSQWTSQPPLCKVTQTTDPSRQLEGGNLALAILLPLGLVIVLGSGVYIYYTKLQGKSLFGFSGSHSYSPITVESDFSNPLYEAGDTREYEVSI

Molecule	K(off) (Human SEZ6L2)	K(on) (Human SEZ6L2)	binding to 293-SEZ6 cells by flow cytometry (SEZ6 (293-SEZ6))	binding to 293-SEZ6L cells by flow cytometry (SEZ6L (293-SEZ6L))	binding to 293-SEZ6L2 cells by flow cytometry (SEZ6L2 (293-SEZ6L2))	K(off) (Cynomolgus monkey SEZ6L2)	K(on) (Cynomolgus monkey SEZ6L2)
16H8: humanized anti-SEZ6L2 antibody, VH SEQ ID NO: 1, VL SEQ ID NO: 5 (antibody, V domains shown) VH: QIQLVQPGAEVKKPGASVKVSCKASGYTFTSYWMYWVRQAPGQGLEWMGAIYPRDSDTSYNQKFKGRVTMTRVTSTSTVYMELSSLRSEDTAVYYCTRGDYYYGSSYYAMDYWGQGTTVTVSSA VL: DIVMTQSPLSLPVTPGEPASISCSSSKSLLHSNGITYLYWYLQKPGQSPQLLIYRMSNLASGVPDRFSGSGSGTDFTLKISRVEAEDVGVYYCAQMLERPYTFGQGTKVEIKR	2.20E−04	6.03E+05	no detectable binding	no detectable binding	recognize a cell line that overexpresses SEZ6L2		
20C4: humanized anti-SEZ6L2 antibody, VH SEQ ID NO: 17, VL SEQ ID NO: 21 (antibody, V domains shown) VH: EVQLVESGGGLVQPGGSLRLSCAASGFTFTDYYMSWVRQAPGKGLEWVALIRNKANGYTTEYSASVKGRFTISRDNSKNSLYLQMNSLRAEDTAVYYCARNGLYGLFAYWGQGTLVTVSSA VL: DIVMTQTPLSIPVTPGEPASISCRSSTSLLESSGKHRLYWYLQKPGQSPQLLIYYMSNLASGVPDRFSGSGSGTDFTLKISRVEAEDFGVYYCMQSLEYPLTFGAGTKVEIKR	2.20E−04	6.35E+04	no detectable binding	no detectable binding	recognize a cell line that overexpresses SEZ6L2	3.18E−04	1.05E+05
3E2: humanized anti-SEZ6L2 antibody, VH SEQ ID NO: 9, VL SEQ ID NO: 13 (antibody, V domains shown) VH: EVQLVESGGGLVQPGGSLKLSCAASGFSFNTITMNWVRQASGKGLEWVGRIRSKSNNYATYYADAVKDRFTISRDDSKNTAYLQMNSLKTEDTAVYYCVRGIFSGYVYAMDYWGQGTLVTVSSA VL: DVVMTQSPLSLPVTVGQPASISCRSSQSIVHSNGNTYLEWFQQRPGQSPRVLIYKVSNRFSGVPDRFSGSGSGTDFTLKISRVEAEDVGVYYCFQGSHVPYTFGGGTKLEIKR	3.19E−03	1.33E+06	no detectable binding	no detectable binding	recognize a cell line that overexpresses SEZ6L2	2.95E−03	1.37E+06
2E4: humanized anti-SEZ6L2 antibody, VH SEQ ID NO: 25, VL SEQ ID NO: 29 (antibody, V domains shown) VH: EVKLVESGGVLVKPGGSLRLSCAASGFTFSKYAMSWVRQAPGKGLEWVSTISSGGSYTYYPDSVKGRFTISRDNARNSLYLQMNSLRAEDTAIYYCTREGGYDEGYAMDYWGQGTTVTVSSA VL: DIVMTQSPDSLAVSLGERATINCRSSQSLVHSYGNTYLHWYQQKPGQPPKLLIYKVSNRFSGVPDRFSGSGSGTDFTLTISSLQAEDVAVYFCSQSTHFRTFGGGTKVEIKR	1.33E−03	2.05E+05	no detectable binding	no detectable binding	recognize a cell line that overexpresses SEZ6L2	1.94E−03	1.63E+05
3B6: human anti-SEZ6L2 antibody, VH SEQ ID NO: 109, VL SEQ ID NO: 113 (antibody, V domains shown) VH: QVQLVQSGAEVKKPGASVKVSCKASGYTFTAYYMHWVRQAPGQGLEWMGWINPNSGGTNYAQKFQGRVTMTRDTSIDTAYLDLSRLRSDDTAVYYCAKDSGYDWYFDIWGRGTLVTVSSA VL: EIVLTQSPATLSLSPGERATLSCRASQNISSYLAWYQQKPGQAPRLLIYDASNRATGIPARFSGSGSGTDFTLTISSLEPEDFAVFYCQQHSNWPPLTFGGGTKVEIKR			no detectable binding	no detectable binding	recognize a cell line that overexpresses SEZ6L2		
